Test results: article PMC6200646 (Journal of immunology (Baltimore, Md. : 1950), 2018)

Tests used:
SEC-MALS = biological target: the molecule itself; test: SEC-MALS
[1] = biological target: T1, mCD122(27-241)-hFc-D/mCD132(23-263)-hFc-K heterodimeric Fc fusion (mouse, UniProt P16297 27-241; P34902 23-263); test: SPR
T1 sequence (looked up) 1: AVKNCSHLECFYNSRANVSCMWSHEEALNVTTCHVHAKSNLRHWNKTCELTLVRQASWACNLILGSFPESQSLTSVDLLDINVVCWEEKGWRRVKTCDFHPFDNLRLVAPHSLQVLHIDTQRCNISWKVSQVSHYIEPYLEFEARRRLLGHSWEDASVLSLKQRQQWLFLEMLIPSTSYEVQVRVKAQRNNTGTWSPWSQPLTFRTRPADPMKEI
T1 sequence (looked up) 2: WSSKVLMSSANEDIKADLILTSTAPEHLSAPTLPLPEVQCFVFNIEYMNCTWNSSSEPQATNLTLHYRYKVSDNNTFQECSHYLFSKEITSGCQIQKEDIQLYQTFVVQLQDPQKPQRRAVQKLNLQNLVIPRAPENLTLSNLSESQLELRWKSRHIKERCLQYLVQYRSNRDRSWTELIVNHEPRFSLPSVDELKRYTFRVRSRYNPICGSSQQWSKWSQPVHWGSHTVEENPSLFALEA

[2] = biological target: T2, biot-mCD25(22-186)-BioP-TVMV-His, His cleaved (mouse, UniProt P01590 22-186, biotin); test: SPR
T2 sequence (looked up): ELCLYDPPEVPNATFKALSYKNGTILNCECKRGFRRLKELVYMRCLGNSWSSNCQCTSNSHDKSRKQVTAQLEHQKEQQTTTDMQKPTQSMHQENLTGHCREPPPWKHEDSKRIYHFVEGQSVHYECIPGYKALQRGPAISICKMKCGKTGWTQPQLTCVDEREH

[3] = biological target: T3, human CD25, captured for SPR (human, UniProt P01589 22-240); test: SPR
T3 sequence (looked up): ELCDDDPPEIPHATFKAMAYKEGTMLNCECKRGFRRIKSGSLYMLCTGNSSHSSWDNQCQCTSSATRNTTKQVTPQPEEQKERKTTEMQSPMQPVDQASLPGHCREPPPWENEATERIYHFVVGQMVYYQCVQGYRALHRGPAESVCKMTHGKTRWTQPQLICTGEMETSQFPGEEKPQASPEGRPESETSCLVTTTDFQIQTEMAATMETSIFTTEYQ

B1: mIL-2/hCD25 mouse/human chimeric fusion protein with the 12 amino acid (G3S)3 linker (other, mouse | human)
chain: APTSSSTSSSTAEAQQQQQQQQQQQQHLEQLLMDLQELLSRMENYRNLKLPRMLTFKFYLPKQATELKDLQCLEDELGPLRHVLDLTQSKSFQLEDAENFISNIRVTVVKLKGSDNTFECQFDDESATVVDFLRRWIAFCQSIISTSPQGGGSGGGSGGGSELCDDDPPEIPHATFKAMAYKEGTMLNCECKRGFRRIKSGSLYMLCTGNSSHSSWDNQCQCTSSATRNTTKQVTPQPEEQKERKTTEMQSPMQPVDQASLPGHCREPPPWENEATERIYHFVVGQMVYYQCVQGYRALHRGPAESVCKMTHGKTRWTQPQLICTGEMETSQFPGEEKPQASPEGRPESETSCLVTTTDFQIQTEMAATMETSIFTTEYQGG
modifications: glycosylated
stoichiometry N (SEC-MALS): 2
fold weaker binding than mIL-2 to mIL-2Rβ/γc [1]: 45 fold
fold stronger affinity than mIL-2/mCD25 to mCD25 [2]: 10 fold

B2: mouse IL-2 (ligand, UniProt P04351 21-169, looked up)
chain: APTSSSTSSSTAEAQQQQQQQQQQQQHLEQLLMDLQELLSRMENYRNLKLPRMLTFKFYLPKQATELKDLQCLEDELGPLRHVLDLTQSKSFQLEDAENFISNIRVTVVKLKGSDNTFECQFDDESATVVDFLRRWIAFCQSIISTSPQ
fold weaker Kd than mIL-2 to mCD25 [3]: ~234 fold

B3: mIL-2/mCD25 fusion protein with the 12 amino acid (G3S)3 linker (other, mouse)
chain: APTSSSTSSSTAEAQQQQQQQQQQQQHLEQLLMDLQELLSRMENYRNLKLPRMLTFKFYLPKQATELKDLQCLEDELGPLRHVLDLTQSKSFQLEDAENFISNIRVTVVKLKGSDNTFECQFDDESATVVDFLRRWIAFCQSIISTSPQGGGSGGGSGGGSELCLYDPPEVPNATFKALSYKNGTILNCECKRGFRRLKELVYMRCLGNSWSSNCQCTSNSHDKSRKQVTAQLEHQKEQQTTTDMQKPTQSMHQENLTGHCREPPPWKHEDSKRIYHFVEGQSVHYECIPGYKALQRGPAISICKMKCGKTGWTQPQLTCVDEREHHRFLASEESQGSRNSSPESETSCPITTTDFPQPTETTAMTETFVLTMEYKGG
modifications: glycosylated (N- and O-linked carbohydrate)
stoichiometry N (SEC-MALS): 2
fold weaker apparent Kd than mIL-2 to mIL-2Rβ/γc [1]: ~680 fold
fold weaker apparent Kd than mIL-2 to mCD25 [2]: ~1000 fold
